The test addresses T1, human ACE2 protein (GenScript) (human, UniProt Q9BYF1 18-740).
T1 construct: also called angiotensin-converting enzyme 2; hACE2
As to the kind of experiment: ELISA, plate-bound ACE2, detection by anti-His antibody. On the technique in general: ELISA stands for enzyme-linked immunosorbent assay.

T1 sequence (Q9BYF1 18-740 limits assumed): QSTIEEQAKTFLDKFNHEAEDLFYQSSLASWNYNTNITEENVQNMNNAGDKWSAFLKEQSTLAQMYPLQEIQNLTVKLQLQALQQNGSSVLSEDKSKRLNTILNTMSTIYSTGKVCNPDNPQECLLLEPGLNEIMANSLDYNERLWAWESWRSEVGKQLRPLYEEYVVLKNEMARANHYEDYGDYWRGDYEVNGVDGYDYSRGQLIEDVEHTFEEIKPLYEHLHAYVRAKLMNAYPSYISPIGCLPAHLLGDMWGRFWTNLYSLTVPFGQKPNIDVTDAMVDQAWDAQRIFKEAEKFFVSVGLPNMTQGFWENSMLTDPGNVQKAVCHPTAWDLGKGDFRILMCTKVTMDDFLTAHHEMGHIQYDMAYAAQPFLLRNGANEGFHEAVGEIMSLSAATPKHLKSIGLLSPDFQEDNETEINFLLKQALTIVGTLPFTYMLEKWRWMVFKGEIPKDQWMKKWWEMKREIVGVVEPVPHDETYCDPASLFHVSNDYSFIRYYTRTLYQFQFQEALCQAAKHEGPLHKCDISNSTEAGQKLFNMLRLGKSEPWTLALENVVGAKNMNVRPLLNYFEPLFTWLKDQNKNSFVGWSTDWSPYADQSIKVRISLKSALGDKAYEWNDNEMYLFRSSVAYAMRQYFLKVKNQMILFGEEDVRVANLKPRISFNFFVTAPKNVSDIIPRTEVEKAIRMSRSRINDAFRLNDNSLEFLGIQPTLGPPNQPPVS

B1: cysteine-containing, His-tagged recombinant Parietaria allergen, Par j 2 (other)
chain: EEACGKVVQDIMPCLHFVKGEEKEPSKECCSGTKKLSEEVKTTEQKREACKCIVRATKGISGIKNELVAEVPKKCDIKTTLPPITADFDCSKIQSTIFRGYY
notes: also called negative control protein
Regarding B1, the binding result is reported as “no binding”.

Source of the values: patent US20250345413A1 (VIRAVAXX, published 2025).
